Test results: US20190345234A1 (CENTRE HOSPITALIER UNIVERSITAIRE VAUDOIS, published 2019)

Biological target: Fc-gamma receptor I (CD64) (UniProt P12314 16-374)
Experiment: cell-based or functional assay

Sequence of Fc-gamma receptor I (CD64) (P12314 16-374 limits assumed, form in doubt): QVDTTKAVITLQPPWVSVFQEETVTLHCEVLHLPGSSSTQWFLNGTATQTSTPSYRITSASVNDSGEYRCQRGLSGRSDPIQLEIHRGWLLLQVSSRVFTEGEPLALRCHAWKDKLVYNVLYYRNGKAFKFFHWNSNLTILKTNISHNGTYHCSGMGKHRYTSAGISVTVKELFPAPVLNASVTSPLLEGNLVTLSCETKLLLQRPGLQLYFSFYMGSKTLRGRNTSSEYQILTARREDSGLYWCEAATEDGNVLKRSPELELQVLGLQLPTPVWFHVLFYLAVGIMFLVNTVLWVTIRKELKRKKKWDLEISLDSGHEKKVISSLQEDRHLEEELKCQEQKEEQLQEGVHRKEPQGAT

B1: IgG1 LN01 antibody (antibody, V domains shown)
VH: EVQLVESGPGLVQPWGTLSLTCRVSGDSVSNDNYYWAWIRQTPGRELQVIGTIYYSGTTYYNPSLRNRVTISLDKSVNVVSLRLGSVSAADTAQYYCVRMPSHGFWSTSFSYWYFDLWGRGHFVAVSW
VL: DIQMTQSPSSLSASVGDKVTITCRASQSVTKYLNWYQFKTGQAPRILIYGTYTLLSGVSPRFSGAGSGSLYTLTITNIQPEDFATYYCQQAHSTPWTFGQGTHVAAN
- neutralizing activity on TZM-bl cells expressing Fc-gamma receptor I against parental TZM-bl cells: 100 fold
